The values below come from PMC5449587 (Nucleic Acids Research, 2017).

This series concerns the molecule itself. Nature of the series: crystal structure.

B1: Burkholderia thailandensis deoxyribonuclease II (enzyme)
chain: MAISPRDEQNRSVDLWFAYKVPKLTKDADSDSASGYEYVYYDRQVGAVQKSPNLMNDPKGALFYTLDSVFGDPGDTTGWILYNDEMPADANRSNNATLGHTKGVIAFDIASSSALWLLHSWPKYASPSVPGVPTPLYGQTFLCLSLDLATAGKLAAQMALHQQPQVYLPRTGGLDHTSPLYALTQPLNASAPGDSDSLDFKTRGGVPFKVIAKNRKWGKDFWNDLVGPTLKADMYVETWIRGKIPPVLDSDGVHKTYDIKFIDLRKLGAPWAWPETQDHAKWGITTTDNWVCVGDINRMVTQEKRGGGTIAFQDPKLWKALCETDLIIPPPGKTDAQARAMIRKTHEPAE
Regarding B1, the binding result is reported as “binds”.
